Patent publication US5962294A, “Compositions and methods for the identification and synthesis of sialyltransferases” (The Regents of the University of California, priority 1993, dated 1999)
Positions count from the first letter of the chain named.

Key:
[1] = target: [14C]NeuAc labeled α1-acid glycoprotein produced from the asialo-derivative using ST3 enzyme
[2] = target: [14C]NeuAc labeled α1-acid glycoprotein produced from the asialo-derivative using ST3N enzyme
[3] = target: [14C]NeuAc labeled α1-acid glycoprotein produced from the asialo-derivative using ST6N enzyme
human ST3N = target: T1, human ST3N (Homo sapiens, UniProt Q11203); experiment: Acceptor specificity of soluble human ST3N (protein A fusion from COS-1 cells, on IgG Sepharose); settings: acceptor 0.2 mM; relative to LNT
T1 sequence (Q11203 62-375): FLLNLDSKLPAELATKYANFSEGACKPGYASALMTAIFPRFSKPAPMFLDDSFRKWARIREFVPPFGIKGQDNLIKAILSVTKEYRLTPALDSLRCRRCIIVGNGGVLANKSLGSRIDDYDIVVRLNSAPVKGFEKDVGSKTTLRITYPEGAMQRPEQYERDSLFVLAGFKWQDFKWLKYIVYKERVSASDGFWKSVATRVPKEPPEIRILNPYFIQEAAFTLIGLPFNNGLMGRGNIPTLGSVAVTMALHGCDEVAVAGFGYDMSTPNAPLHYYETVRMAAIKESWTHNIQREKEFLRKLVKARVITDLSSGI

ST3O = target: T2, ST3O (Sus scrofa, UniProt Q02745); experiment: Acceptor specificity of ST3O (Table 4); settings: acceptor 0.2 mM
T2 sequence (Q02745 28-343 limits assumed): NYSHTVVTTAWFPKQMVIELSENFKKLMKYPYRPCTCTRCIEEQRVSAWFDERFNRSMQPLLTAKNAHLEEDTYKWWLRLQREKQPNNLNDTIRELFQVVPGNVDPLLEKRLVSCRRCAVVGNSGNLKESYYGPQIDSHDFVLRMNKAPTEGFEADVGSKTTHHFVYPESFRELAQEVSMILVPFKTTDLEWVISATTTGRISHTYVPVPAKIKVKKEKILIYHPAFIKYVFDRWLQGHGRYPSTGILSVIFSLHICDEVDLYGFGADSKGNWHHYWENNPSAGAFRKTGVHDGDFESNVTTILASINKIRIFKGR

rat ST3N = target: T3, rat ST3N (Rattus norvegicus, UniProt Q02734); experiment: Acceptor specificity of soluble rat ST3N fusion protein (Table 3); settings: acceptor 0.2 mM; relative to LNT
T3 sequence (Q02734 29-374 limits assumed): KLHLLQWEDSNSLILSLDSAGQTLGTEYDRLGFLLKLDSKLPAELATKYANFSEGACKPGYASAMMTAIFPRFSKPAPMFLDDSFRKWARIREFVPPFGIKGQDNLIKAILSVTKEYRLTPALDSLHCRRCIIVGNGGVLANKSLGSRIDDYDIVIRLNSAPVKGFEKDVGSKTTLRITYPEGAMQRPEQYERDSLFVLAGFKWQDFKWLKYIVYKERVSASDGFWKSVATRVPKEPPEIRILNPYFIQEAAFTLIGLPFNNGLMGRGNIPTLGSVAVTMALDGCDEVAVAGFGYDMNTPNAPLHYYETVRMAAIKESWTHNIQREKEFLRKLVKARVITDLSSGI

ST3N = target: T4, ST3N (Rattus norvegicus, UniProt Q02734); experiment: Acceptor specificity of ST3N (Table 4)
T4 sequence (Q02734 29-374 limits assumed): T3 sequence (Q02734 29-374 limits assumed)

[4] = target: asialo-α1-acid glycoprotein (Galβ1,4GlcNAc-R)
[5] = target: asialo-α1-acid glycoprotein (Galβ1,4GlcNAc-R); remark: listed apart in the source
[6] = target: asialofetuin (Galβ1,3GalNAc-Thr/Ser and Galβ1,4GlcNAc-R)
[7] = target: antifreeze glycoprotein (Galβ1,3GalNAc-Thr)
[8] = target: ovine submaxillary asialo-mucin (GalNAc-Thr/Ser) (ovine)
[9] = system: sialidase from Newcastle disease virus; type: biochemical; settings: product formed by the named enzyme, hydrolyzed with Newcastle disease virus sialidase
[10] = system: acceptor substrate antifreeze glycoprotein (AFGP); settings: Rearick et al. 1979; cited from earlier work
Chain of acceptor substrate antifreeze glycoprotein (AFGP) (as listed by the source): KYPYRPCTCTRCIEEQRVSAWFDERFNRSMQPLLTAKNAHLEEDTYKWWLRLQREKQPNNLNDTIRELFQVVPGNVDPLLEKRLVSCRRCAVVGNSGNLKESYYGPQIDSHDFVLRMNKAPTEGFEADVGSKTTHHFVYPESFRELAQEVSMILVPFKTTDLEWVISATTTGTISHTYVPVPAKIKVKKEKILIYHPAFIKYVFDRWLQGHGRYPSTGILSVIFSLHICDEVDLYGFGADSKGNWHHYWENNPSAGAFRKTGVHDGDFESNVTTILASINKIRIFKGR

[11] = system: acceptor substrate antifreeze glycoprotein (AFGP); experiment: Sialyltransferase activity of purified porcine liver α2,3-0 sialyltransferase; type: biochemical; settings: after third CDP-hexanolamine agarose column
Source text: FIG. 4 Purification of the α2,3-0 sialyltransferase on CDP-hexanolamine agarose (column III, CDP elution). […] In columns A and B elution of enzyme activity correlated predominantly with 48 kDa and a 45 kDa protein species, respectively (see inset, SDS-PAGE). These two species, form A and form B of the α2,3 sialyltransferase, had specific activities of 8-10 units/mg protein. The 48 kDA and 45 kDA species were blotted to a PVDF membrane and analyzed by NH2 -terminal sequencing.
The enzyme was purified from a porcine liver Triton X-100 extract by affinity chromatography on three successive columns of CDP-hexanolamineagarose. The elution profile from the first and third purification steps are shown in FIG. 3 and FIG. 4, respectively. […] These two peaks were separated by combining the indicated fractions into pools A and B, these two pools were subsequently found to be enriched in two different molecular weight forms of the α2,3-0 sialyltransferase.
The membranes were extracted three times with buffer (Conradt, H. S. et al., in Sialic Acids 1988 Proceedings of the Japanese-German Symposium on Sialic Acids (Schauer and Yamakawa, eds.) pp. 104-105, Verlag Wissenschaft and Bildung, Kiel [1988]) and the extract was passed over a 1.5 l CDP-hexanolamine agarose column (column 1) (16 umol/ml). After washing the column with 3 L buffer B, the column was eluted with a linear gradient of 0.05 to 1.0 M KCL (2.5 l×2.5 l) in buffer B. Fractions containing α2,3 sialyltransferase were combined into two pools A and B, representing the main part and the trailing end of the peak, respectively (see FIG. 3). The pools were dialysed against buffer B and subjected to another round of affinity chromatography on CDP-hexanolamine agarose (columns IIA and IIB). A 150 ml column was used for pool A and a 30 ml column was used for pool B; two preparations from column I (from total of 4 kg liver) were loaded on the same column in step II. […]

[12] = target: T5, (Sus scrofa, UniProt Q02745); experiment: Sialyltransferase activity in media of COS-1 cells transfected with sp-ST; settings: 48 hours post-transfection, media concentrated
T5 sequence (Q02745 28-343 limits assumed): T2 sequence (Q02745 28-343 limits assumed)

Which results are given for “sialidase from Newcastle disease virus (Oxford Glycosystems) (enzyme)”?
release of [14C]NeuAc from labeled glycoprotein (% of total 14C NeuAc released) [1]: 83; release of [14C]NeuAc from labeled glycoprotein (% of total 14C NeuAc released) [2]: 82; release of [14C]NeuAc from labeled glycoprotein (% of total 14C NeuAc released) [3]: 0

For CC(=O)N[C@H]1C(O)O[C@H](CO)[C@@H](O[C@@H]2O[C@H](CO)[C@H](O)[C@H](O)[C@H]2O)[C@@H]1O (some centres unmarked) [Galβ1,4GlcNAc], which “Relative activity (%) Human” value (human ST3N) is on record?
The value was 22%.

And the “Relative rate (%) ST30” value (ST3O)?
Its value is 0%.

And the “Relative activity (%) Rat” value (rat ST3N)?
Its value is 19%.

What about the “Relative rate (%) ST3N” value (ST3N; acceptor 0.2 mM) of the same molecule?
The value was 19%.

What about the “Relative rate (%) ST3N” value (ST3N; acceptor 2.0 mM) of the same molecule?
The value was 46%.

Which Relative activity (%), acceptor 0.2 mM [4] does the source give for “soluble protein A/human ST3N fusion (expression plasmid A3NHP), human Galβ1,3(4)GlcNAc α2,3-sialyltransferase (from UniProt P02976) (enzyme)” here?
Its Relative activity (%), acceptor 0.2 mM is 14%.

What does the source list for “soluble protein A/ST3 fusion (expression plasmid AZ3), human ST3 sialyltransferase (from UniProt P02976) (enzyme)”?
Relative rate (%) of sialic acid transfer, acceptor 0.2 mM [5]: 51%; Relative rate (%) of sialic acid transfer, acceptor 0.2 mM [6]: 92%; Relative rate (%) of sialic acid transfer, acceptor 0.2 mM [7]: 50%; Relative rate (%) of sialic acid transfer, acceptor 0.2 mM [8]: 3.8%

Which Relative rate (%) of sialic acid transfer, acceptor 0.2 mM [5] does the source give for “signal peptide-ST (sp-ST), soluble form of porcine Galβ1,3GalNAc α2,3 sialyltransferase (pSVL-spST) (enzyme)” here?
The Relative rate (%) of sialic acid transfer, acceptor 0.2 mM was 0%.

What about the Relative rate (%) of sialic acid transfer, acceptor 0.2 mM [6] of the same molecule?
Its Relative rate (%) of sialic acid transfer, acceptor 0.2 mM is 26%.

And the Relative rate (%) of sialic acid transfer, acceptor 0.2 mM [7]?
Its Relative rate (%) of sialic acid transfer, acceptor 0.2 mM is 57%.

And the Relative rate (%) of sialic acid transfer, acceptor 0.2 mM [8]?
The Relative rate (%) of sialic acid transfer, acceptor 0.2 mM was 5%.

B1: rat Galβ1,4GlcNAc α2,6-sialyltransferase (protein)
chain: SKQDPKEDIPILSYHRVTAKVKPQPSFQVWDKDSTYSKLNPRLLKIWRNYLNMNKYKVSYKGPGPGVKFSVEALRCHLRDHVNVSMIEATDFPFNTTEWEGYLPKENFRTKVGPWQRCAVVSSAGSLKNSQLGREIDNHDAVLRFNGAPTDNFQQDVGSKTTIRLMNSQLVTTEKRFLKDSLYTEGILIVWDPSVYHADIPKWYQKPDYNFFETYKSYRRLDPSQPFYILKPQMPWELWDIIQEISADLIQPNPPSSGMLGIIIMMTLCDQVDIYEFLPSKRKTDVCYYHQKFFDSACTMGAYHPLLFEKNMVKHLNEGTDEDIYLFGKATLSGFRNIRC
Which “total [14C]NeuAc released from labeled α1-acid glycoprotein product” value (“total [14C]NeuAc released” below) [9] does the source give for B1 here?
Its value is 0%.

B2: rat Galβ1,3(4)GlcNAc α2,3 sialyltransferase (protein)
chain: T3 sequence (Q02734 29-374 limits assumed) with W226S, G257R
With B2 as the molecule, how does the “total [14C]NeuAc released” value [9] read?
The value was 82%.

B3: Form B: 45 kDa molecular weight form of the porcine liver α2,3 sialyltransferase (protein)
chain: T2 sequence (Q02745 28-343 limits assumed) with R201T
For B3, which “catalytic activity (in words)” value [10] is on record?
Its value is “fully catalytically active”.

And the specific activity [11]?
Its specific activity is 8-10 units/mg protein.

B4: sp-ST: fusion of insulin signal sequence, 9 linker amino acids and the catalytic domain of α2,3-0 sialyltransferase (protein)
chain: T2 sequence (Q02745 28-343 limits assumed) with R201T
For B4, which “sialyltransferase activity in media” value [12] is on record?
Its value is “contained milliunits/ml of the sialyltransferase”.

B5: ST3: human sialyltransferase of SEQ. ID. NO:12; β-galactoside α2,3-sialyltransferase (protein)
chain: MCPAGWKLLAMLALVLVVMVWYSISREDRYIEPFYFPIPEKKEPCLQGEAESKASKLFGNYSRDQPIFLRLEDYFWVKTPSAYELPYGTKGSEDLLLRVLAITSSSIPKNIQSLRCRRCVVVGNGHRLRNSSLGDAINKYDVVIRLNNAPVAGYEGDVGSKTTMRLFYPESAHFDPKVENNPDTLLVLVAFKAMDFHWIETILSDKKRVRKGFWKQPPLIWDVNPKQIRILNPFFMEIAADKLLSLPMQQPRKIKQKPTTGLLAITLALHLCDLVHIAGFGYPDAYNKKQTIHYYEQITLKSMAGSGHNVSQEALAIKRMLEMGAIKNLTSF
With B5 as the molecule, how does the “total [14C]NeuAc released” value [9] read?
Its value is 83%.
